This note sets out measurements from patent US6423827 (UNIVERSITY OF MEDICINE AND DENTISTRY OF NEW JERSEY, dated 2002).

This experiment concerns the target T1, recombinant rat LAMP (limbic system-associated membrane protein) expressed at the surface of CHO cells (CHOL … (rat, UniProt Q62813 29-315, PI (GPI) linkage to the membrane at the processed C-terminus, at or near Asn315)); N-linked glycosylation (apparent 55 kDa)).
T1 construct: The C-terminal limit 315 is only 'at or near'; also called LAMP cDNA transfected cells
T1 sequence: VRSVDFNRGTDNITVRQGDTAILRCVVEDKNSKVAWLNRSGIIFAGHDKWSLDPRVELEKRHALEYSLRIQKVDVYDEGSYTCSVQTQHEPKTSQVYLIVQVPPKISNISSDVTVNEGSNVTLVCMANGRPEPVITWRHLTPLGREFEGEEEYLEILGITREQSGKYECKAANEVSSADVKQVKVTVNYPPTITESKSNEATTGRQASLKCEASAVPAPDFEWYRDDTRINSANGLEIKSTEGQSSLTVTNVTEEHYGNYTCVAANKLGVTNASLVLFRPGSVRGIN
Description: fluorescent beads coated with native LAMP, incubated with CHO cells expressing rat LAMP. As to the method: To test whether CHO_L cells can bind external LAMP, fluorescent synthetic beads of 2 μm diameter, which have reactive sites for covalently linking protein (Covasphere™ beads, Duke Scientific, Palo Alto, Calif.), were coated with native LAMP that had been released from hippocampal membranes with PI-specific phospholipase C. The beads were incubated with the recombinant cells and the extent of binding to the cell surface determined.

B1: native rat LAMP from hippocampal membranes (receptor)
chain: VRSVDFNRGTDNITVRQGDTAILRCVVEDKNSKVAWLNRSGIIFAGHDKWSLDPRVELEKRHALEYSLRIQKVDVYDEGSYTCSVQTQHEPKTSQVYLIVQVPPKISNISSDVTVNEGSNVTLVCMANGRPEPVITWRHLTPLGREFEGEEEYLEILGITREQSGKYECKAANEVSSADVKQVKVTVNYPPTITESKSNEATTGRQASLKCEASAVPAPDFEWYRDDTRINSANGLEIKSTEGQSSLTVTNVTEEHYGNYTCVAANKLGVTNASLVLFRPGSVRGIN
modifications: N-linked glycosylation (apparent 64-68 kDa)
notes: The C-terminal limit 315 is only 'at or near'; also called native LAMP; external LAMP
For the molecule B1, the binding result is on record as “binds”.
